The values below come from the RNAGym collection of RNA variant scans (doi:10.7554/elife.80360).

To fix the notation:
B1: Hairpin Ribozyme (parent)
chain: GUCCUCUUUCACGUGCGCGUGAAAGAGAGAAGUGAACCAGAGAAACACACGUUGUGGUAUAUUACCUGGUA

This series covers variants of B1. In words: self-cleavage, relative activity (ratio to wild type); higher = more cleavage; co-transcriptional.
With GUCCUCUUUCACGUGCGCGUGAAAGAGAGAAGUGAACCACAGAAACACACGUUGUUGUAUAUUACCUGGUA [G40C G56U], the self-cleavage was found to be 0.152.
The result for GUCCUCUUUCACGUGCGCGUGAAAGAGAGAAGUGAACCAAAGAAACACACGUUGUGGUACAUUACCUGGUA [G40A U60C] reads 0.413; that for GUCCUCUUUCACGUGCGCGUGAAAGAGAGAAGUGAACCAAAGAAACACACGUUGUGGUAUAUCACCUGGUA [G40A U63C], 0.15.
The value for GUCCUCUUUCACGUGCGCGUGAAAGAGAGAAGUGAACCAAAGAAACACACGUUGUGGUAUAUAACCUGGUA [G40A U63A] was 0.161; that for GUCCUCUUUCACGUGCGCGUGAAAGAGAGAAGUGAACCUGAGAAACACACGUUGUGGUAUAUUACCUCGUA [A39U G68C] was 0.0955; that for GUCCUCUUUCACGUGCGCGUGAAAGAGAGAAGUGAACCUGAGAAACACACGUUGUGGUAUAUUACCUAGUA [A39U G68A] was 0.199.
As to GUCCUCUUUCACGUGCGCGUGAAAGAGAGAAGUGAACCACAGAAACACACGUUGUGGUAUUUUACCUGGUA [G40C A61U], the self-cleavage was 0.224.
Consider GUCCUCUUUCACGUGCGCGUGAAAGAGAGAAGUGAACCUGAGAAACACACGUUGUGGUAGAUUACCUGGUA [A39U U60G], for which the self-cleavage turned out to be 0.256.
Regarding GUCCUCUUUCACGUGCGCGUGAAAGAGAGAAGUGAACCACAGAAACACACAUUGUGGUAUAUUACCUGGUA [G40C G51A], the self-cleavage came out at 0.115.
With GUCCUCUUUCACGUGCGCGUGAAAGAGAGAAGUGAACCACGGAAACACACGUUGUGGUAUAUUACCUGGUA [G40C A41G], the self-cleavage turned out to be 0.163.
As for GUCCUCUUUCACGUGCGCGUGAAAGAGAGAAGUGAACCAAAGAAACACACGUUGUGGUAUAUUACCGGGUA [G40A U67G], the self-cleavage is 0.147.
Consider GUCCUCUUUCACGUGCGCGUGAAAGAGAGAAGUGAACCUGAGAAACACACGUUGUGGUAUACUACCUGGUA [A39U U62C], for which the self-cleavage came to 0.133.
GUCCUCUUUCACGUGCGCGUGAAAGAGAGAAGUGAACCACAGAAGCACACGUUGUGGUAUAUUACCUGGUA [G40C A45G]: the self-cleavage stood at 0.0193.
As to GUCCUCUUUCACGUGCGCGUGAAAGAGAGAAGUGAACCACAGAAUCACACGUUGUGGUAUAUUACCUGGUA [G40C A45U], the self-cleavage is 0.267.
The value for GUCCUCUUUCACGUGCGCGUGAAAGAGAGAAGUGAACCAAAGAAACACACGUUAUGGUAUAUUACCUGGUA [G40A G54A] was 0.19.
Take GUCCUCUUUCACGUGCGCGUGAAAGAGAGAAGUGAACCAAAGAAACACACGUUCUGGUAUAUUACCUGGUA [G40A G54C]: the self-cleavage worked out at 0.0891.
GUCCUCUUUCACGUGCGCGUGAAAGAGAGAAGUGAACCAAAGAAACACACGUUGUGGUAUCUUACCUGGUA [G40A A61C]: the self-cleavage stood at 0.14.
As to GUCCUCUUUCACGUGCGCGUGAAAGAGAGAAGUGAACCACAGAAACGCACGUUGUGGUAUAUUACCUGGUA [G40C A47G], the self-cleavage amounted to 0.0685.
The result for GUCCUCUUUCACGUGCGCGUGAAAGAGAGAAGUGAACCACAGAAAGACACGUUGUGGUAUAUUACCUGGUA [G40C C46G] reads 0.21.
Take GUCCUCUUUCACGUGCGCGUGAAAGAGAGAAGUGAACCAAAGAAACACACGUUGUGGCAUAUUACCUGGUA [G40A U58C]: the self-cleavage amounted to 0.558.
The value for GUCCUCUUUCACGUGCGCGUGAAAGAGAGAAGUGAACCACAGAAACACAUGUUGUGGUAUAUUACCUGGUA [G40C C50U] was 0.198.
The result for GUCCUCUUUCACGUGCGCGUGAAAGAGAGAAGUGAACCUGAGAAACACACGUUGUGGUAUAUUACCUGGUG [A39U A71G] reads 0.221; that for GUCCUCUUUCACGUGCGCGUGAAAGAGAGAAGUGAACCAAAGAAACACACGUUGUGGUAUAUUACCUGAUA [G40A G69A], 0.122; that for GUCCUCUUUCACGUGCGCGUGAAAGAGAGAAGUGAACCUGAGAAACACACGUUGUGGUAUAUUACCUGGAA [A39U U70A], 0.289.
Turning to GUCCUCUUUCACGUGCGCGUGAAAGAGAGAAGUGAACCAAAGAAACACACAUUGUGGUAUAUUACCUGGUA [G40A G51A], the self-cleavage amounted to 0.578.
Take GUCCUCUUUCACGUGCGCGUGAAAGAGAGAAGUGAACCAAAGAAGCACACGUUGUGGUAUAUUACCUGGUA [G40A A45G]: the self-cleavage is 0.147.
GUCCUCUUUCACGUGCGCGUGAAAGAGAGAAGUGAACCAAAGAAACACACGUUGUGGUAUAUUACCUGGUG [G40A A71G]: the self-cleavage was 0.402.
Take GUCCUCUUUCACGUGCGCGUGAAAGAGAGAAGUGAACCACAGAAACACACGUUGUGGUUUAUUACCUGGUA [G40C A59U]: the self-cleavage was determined as 0.198.
As for GUCCUCUUUCACGUGCGCGUGAAAGAGAGAAGUGAACCUGAGAAACACACGUUAUGGUAUAUUACCUGGUA [A39U G54A], the self-cleavage turned out to be 0.122.
As to GUCCUCUUUCACGUGCGCGUGAAAGAGAGAAGUGAACCAAAGAAACACACGUUGUGUUAUAUUACCUGGUA [G40A G57U], the self-cleavage was found to be 0.0976.
With GUCCUCUUUCACGUGCGCGUGAAAGAGAGAAGUGAACCAAAGAAACACACGUUGUGCUAUAUUACCUGGUA [G40A G57C], the self-cleavage came to 0.0825.
With GUCCUCUUUCACGUGCGCGUGAAAGAGAGAAGUGAACCUGAGAAACACACCUUGUGGUAUAUUACCUGGUA [A39U G51C], the self-cleavage was found to be 0.35.
With GUCCUCUUUCACGUGCGCGUGAAAGAGAGAAGUGAACCUGAGAAACACACAUUGUGGUAUAUUACCUGGUA [A39U G51A], the self-cleavage is 0.585.
With GUCCUCUUUCACGUGCGCGUGAAAGAGAGAAGUGAACCUGAGAAACACACGUGGUGGUAUAUUACCUGGUA [A39U U53G], the self-cleavage was 0.179.
Regarding GUCCUCUUUCACGUGCGCGUGAAAGAGAGAAGUGAACCUAAGAAACACACGUUGUGGUAUAUUACCUGGUA [A39U G40A], the self-cleavage is 0.134.
As for GUCCUCUUUCACGUGCGCGUGAAAGAGAGAAGUGAACCUUAGAAACACACGUUGUGGUAUAUUACCUGGUA [A39U G40U], the self-cleavage worked out at 0.149.
As to GUCCUCUUUCACGUGCGCGUGAAAGAGAGAAGUGAACCUCAGAAACACACGUUGUGGUAUAUUACCUGGUA [A39U G40C], the self-cleavage turned out to be 0.149.
As to GUCCUCUUUCACGUGCGCGUGAAAGAGAGAAGUGAACCACAGAAACACACGUUGUGGUAUAUUACCUGGUG [G40C A71G], the self-cleavage is 0.165.
